Laboratory results published in IntAct's records for PubMed 21697476.

B1: Replication and transcription activator (Epstein-Barr virus (strain B95-8) (HHV-4)), P03209 (parent)
chain: MRPKKDGLEDFLRLTPEIKKQLGSLVSDYCNVLNKEFTAGSVEITLRSYKICKAFINEAKAHGREWGGLMATLNICNFWAILRNNRVRRRAENAGNDACSIACPIVMRYVLDHLIVVTDRFFIQAPSNRVMIPATIGTAMYKLLKHSRVRAYTYSKVLGVDRAAIMASGKQVVEHLNRMEKEGLLSSKFKAFCKWVFTYPVLEEMFQTMVSSKTGHLTDDVKDVRALIKTLPRASYSSHAGQRSYVSGVLPACLLSTKSKAVETPILVSGADRMDEELMGNDGGASHTEARYSESGQFHAFTDELESLPSPTMPLKPGAQSADCGDSSSSSSDSGNSDTEQSEREEARAEAPRLRAPKSRRTSRPNRGQTPCPSNAAEPEQPWIAAVHQESDERPIFPHPSKPTFLPPVKRKKGLRDSREGMFLPKPEAGSAISDVFEGREVCQPKRIRPFHPPGSPWANRPLPASLAPTPTGPVHEPVGSLTPAPVPQPLDPAPAVTPEASHLLEDPDEETSQAVKALREMADTVIPQKEEAAICGQMDLSHPPPRGHLDELTTTLESMTEDLNLDSPLTPELNEILDTFLNDECLLHAMHISTGLSIFDTSLF

Variants of: B1
Details: with po2f1_human POU2F1, P14859
Sequence of po2f1_human POU2F1, P14859 (P14859 whole entry): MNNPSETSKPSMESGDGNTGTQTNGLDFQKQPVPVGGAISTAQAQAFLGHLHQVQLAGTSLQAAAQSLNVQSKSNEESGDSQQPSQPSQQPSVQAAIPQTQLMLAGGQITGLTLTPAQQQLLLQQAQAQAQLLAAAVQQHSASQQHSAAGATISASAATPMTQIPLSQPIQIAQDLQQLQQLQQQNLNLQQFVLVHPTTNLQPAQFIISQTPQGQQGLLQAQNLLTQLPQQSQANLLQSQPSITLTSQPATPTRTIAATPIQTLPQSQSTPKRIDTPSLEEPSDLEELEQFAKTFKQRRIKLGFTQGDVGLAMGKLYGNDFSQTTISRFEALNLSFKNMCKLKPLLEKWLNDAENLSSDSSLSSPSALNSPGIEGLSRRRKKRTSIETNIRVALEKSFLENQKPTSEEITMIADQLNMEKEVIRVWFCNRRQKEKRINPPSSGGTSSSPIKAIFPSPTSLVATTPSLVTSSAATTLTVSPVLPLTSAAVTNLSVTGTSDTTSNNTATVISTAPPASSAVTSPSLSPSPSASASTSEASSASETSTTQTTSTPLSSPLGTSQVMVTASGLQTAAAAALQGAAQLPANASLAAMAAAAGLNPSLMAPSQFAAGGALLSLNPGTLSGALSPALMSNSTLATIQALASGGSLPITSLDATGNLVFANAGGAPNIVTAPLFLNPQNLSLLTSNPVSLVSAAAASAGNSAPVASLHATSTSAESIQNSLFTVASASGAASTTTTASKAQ

Variant | effect of a mutation on the interaction
M140A | decreasing interaction
